Our source for the Km and kcat/Km values is patent EP3196312B1, “EFFICIENT CONVERSION OF METHYLGLYOXAL INTO HYDROXYACETONE USING NOVEL ENZYMES AND APPLI CATIONS THEREOF” (Metabolic Explorer, priority 2016, dated 2017).

In data set [1] the test system is CC(=O)C=O. Nature of the data set: Methylglyoxal reductase kinetic parameters of purified enzyme (NAD(P)H consumption at 340 nm). The following applies: other: substrate methylglyoxal 0.1-40 mM, cofactor NADPH, pH 7.5. Format: biochemical, Escherichia coli. The protocol:
Except for the strain 18, the proteins were purified from the crude cell-extract by affinity on a Profinity column (BIORAD, Bio-Scale Mini Profinity exact cartridge 5 ml) according to the protocol recommended by the manufacturer. The crude extract was loaded on a 5 ml Profinity exact cartridge equilibrated with 100 mM potassium phosphate pH 7.6. The column was washed with 10 column volumes of the same buffer and incubated 30min with 100 mM potassium phosphate pH 7.6, 100 mM fluoride at room temperature. The protein was eluted from the column with 2 column volumes of 100 mM potassium phosphate pH 7.6. The tag remained tightly bound to the resin and the purified protein was released. The fractions containing the protein were pooled, concentrated and loaded on a gel filtration column (Superdex 200 10/300 GL column, GE Healthcare) equilibrated with different storage buffers (Table 3). Protein concentration was measured using the Bradford protein assay.
(§1) Methylglyoxal reductase activity (MGR) was determined by measuring the consumption of NAD(P)H at 340 nm on a spectrophotometer at 30°C (λ340 = 6290 M^-1 cm^-1). The reaction mixture (1mL) containing assay buffer and purified enzyme was incubated for 5 min at 30°C. Then, 0.1-40 mM methylglyoxal was added to start the reaction. One unit of enzyme activity was defined as the amount of enzyme catalyzing the decrease of 1µmol of NAD(P)H per min. Kinetic parameters were determined with Sigmaplot.

The test system of data set [2] is CC(=O)C=O. The description is as above. Format: biochemical, Escherichia coli. Conditions: other: substrate methylglyoxal 0.1-40 mM, cofactor NADH, 100mM MES-KOH (pH6.5) 0.1mM FeSO4 30mM ammonium sulfate, 30°C, pH 6.5. The protocol: For strain 14, the purification protocol was previously described in patent application WO 2015/173247. Table 3: Protein storage buffer
as §1

By Km is commonly meant the substrate concentration at which the rate is half of its maximum. One may read the kcat/Km as the turnover number divided by the Michaelis constant. Consider “Escherichia coli YdjG variant YdjG*(D232E), SEQ ID NO: 101 (Escherichia coli K-12; D232E)”, for which, in the data set on CC(=O)C=O [1] (20mM Hepes (pH7.5), 30°C), the Km came out at 3.25 mM and the kcat/Km was determined as 10 M⁻¹ s⁻¹.

Take “Escherichia coli GldA (glycerol dehydrogenase) variant GldA*(A160T), SEQ ID NO: 17 (Escherichia coli K-12; A160T)”: in the data set on CC(=O)C=O [2], the Km amounted to 3.17 mM and the kcat/Km stood at 7800 M⁻¹ s⁻¹.

As to “Escherichia coli YqhD variant YqhD*(G149E), SEQ ID NO: 9 (Escherichia coli K-12; G149E)”, the Km in the data set with CC(=O)C=O [1] (20mM Hepes (pH7.5) 0.1mM ZnSO4, 30°C) was 2.92 mM.
